# Residue numbers refer to the chain shown, from its start. Names may count otherwise.
# B1: Mcm3 (wild type), subunit of Saccharomyces cerevisiae Mcm2-7 (natural protein, S. cerevisiae, UniProt P24279 1-971, looked up)
# chain: MEGSTGFDGDATTFFAPDAVFGDRVRRFQEFLDTFTSYRDSVRSIQVYNSNNAANYNDDQDDADERDLLGDDDGDDLEKEKKAASSTSLNILPHRIIISLDDLREFDRSFWSGILVEPAYFIPPAEKALTDLADSMDDVPHPNASAVSSRHPWKLSFKGSFGAHALSPRTLTAQHLNKLVSVEGIVTKTSLVRPKLIRSVHYAAKTGRFHYRDYTDATTTLTTRIPTPAIYPTEDTEGNKLTTEYGYSTFIDHQRITVQEMPEMAPAGQLPRSIDVILDDDLVDKTKPGDRVNVVGVFKSLGAGGMNQSNSNTLIGFKTLILGNTVYPLHARSTGVAARQMLTDFDIRNINKLSKKKDIFDILSQSLAPSIYGHDHIKKAILLMLMGGVEKNLENGSHLRGDINILMVGDPSTAKSQLLRFVLNTASLAIATTGRGSSGVGLTAAVTTDRETGERRLEAGAMVLADRGVVCIDEFDKMTDVDRVAIHEVMEQQTVTIAKAGIHTTLNARCSVIAAANPVFGQYDVNRDPHQNIALPDSLLSRFDLLFVVTDDINEIRDRSISEHVLRTHRYLPPGYLEGEPVRERLNLSLAVGEDADINPEEHSNSGAGVENEGEDDEDHVFEKFNPLLQAGAKLAKNKGNYNGTEIPKLVTIPFLRKYVQYAKERVIPQLTQEAINVIVKNYTDLRNDDNTKKSPITARTLETLIRLATAHAKVRLSKTVNKVDAKVAANLLRFALLGEDIGNDIDEEESEYEEALSKRSPQKSPKKRQRVRQPASNSGSPIKSTPRRSTASSVNATPSSARRILRFQDDEQNAGEDDNDIMSPLPADEEAELQRRLQLGLRVSPRRREHLHAPEEGSSGPLTEVGTPRLPNVSSAGQDDEQQQSVISFDNVEPGTISTGRLSLISGIIARLMQTEIFEEESYPVASLFERINEELPEEEKFSAQEYLAGLKIMSDRNNLMVADDKVWRV
# notes: source: E. coli, purified, reconstituted into Mcm2-7 as described [27]
# B2: Mcm2, subunit of Saccharomyces cerevisiae Mcm2-7 (natural protein, S. cerevisiae, UniProt P29469 1-868, looked up)
# chain: MSDNRRRRREEDDSDSENELPPSSPQQHFRGGMNPVSSPIGSPDMINPEGDDNEVDDVPDIDEVEEQMNEVDLMDDNMYEDYAADHNRDRYDPDQVDDREQQELSLSERRRIDAQLNERDRLLRNVAYIDDEDEEQEGAAQLDEMGLPVQRRRRRRQYEDLENSDDDLLSDMDIDPLREELTLESLSNVKANSYSEWITQPNVSRTIARELKSFLLEYTDETGRSVYGARIRTLGEMNSESLEVNYRHLAESKAILALFLAKCPEEMLKIFDLVAMEATELHYPDYARIHSEIHVRISDFPTIYSLRELRESNLSSLVRVTGVVTRRTGVFPQLKYVKFNCLKCGSILGPFFQDSNEEIRISFCTNCKSKGPFRVNGEKTVYRNYQRVTLQEAPGTVPPGRLPRHREVILLADLVDVSKPGEEVEVTGIYKNNYDGNLNAKNGFPVFATIIEANSIKRREGNTANEGEEGLDVFSWTEEEEREFRKISRDRGIIDKIISSMAPSIYGHRDIKTAVACSLFGGVPKNVNGKHSIRGDINVLLLGDPGTAKSQILKYVEKTAHRAVFATGQGASAVGLTASVRKDPITKEWTLEGGALVLADKGVCLIDEFDKMNDQDRTSIHEAMEQQSISISKAGIVTTLQARCSIIAAANPNGGRYNSTLPLAQNVSLTEPILSRFDILCVVRDLVDEEADERLATFVVDSHVRSHPENDEDREGEELKNNGESAIEQGEDEINEQLNARQRRLQRQRKKEEEISPIPQELLMKYIHYARTKIYPKLHQMDMDKVSRVYADLRRESISTGSFPITVRHLESILRIAESFAKMRLSEFVSSYDLDRAIKVVVDSFVDAQKVSVRRQLRRSFAIYTLGH
# notes: Mcm2, S. cerevisiae, recombinant subunit; source: E. coli, purified, reconstituted into Mcm2-7 as described [27]
# B3: Mcm7, subunit of Saccharomyces cerevisiae Mcm2-7 (natural protein, S. cerevisiae, UniProt P38132 1-845, looked up)
# chain: MSAALPSIQLPVDYNNLFNEITDFLVTFKQDTLSSDATRNENEDENLDAENIEQHLLEKGPKYMAMLQKVANRELNSVIIDLDDILQYQNEKFLQGTQADDLVSAIQQNANHFTELFCRAIDNNMPLPTKEIDYKDDVLDVILNQRRLRNERMLSDRTNEIRSENLMDTTMDPPSSMNDALREVVEDETELFPPNLTRRYFLYFKPLSQNCARRYRKKAISSKPLSVRQIKGDFLGQLITVRGIITRVSDVKPAVEVIAYTCDQCGYEVFQEVNSRTFTPLSECTSEECSQNQTKGQLFMSTRASKFSAFQECKIQELSQQVPVGHIPRSLNIHVNGTLVRSLSPGDIVDVTGIFLPAPYTGFKALKAGLLTETYLEAQFVRQHKKKFASFSLTSDVEERVMELITSGDVYNRLAKSIAPEIYGNLDVKKALLLLLVGGVDKRVGDGMKIRGDINVCLMGDPGVAKSQLLKAICKISPRGVYTTGKGSSGVGLTAAVMKDPVTDEMILEGGALVLADNGICCIDEFDKMDESDRTAIHEVMEQQTISISKAGINTTLNARTSILAAANPLYGRYNPRLSPLDNINLPAALLSRFDILFLMLDIPSRDDDEKLAEHVTYVHMHNKQPDLDFTPVEPSKMREYIAYAKTKRPVMSEAVNDYVVQAYIRLRQDSKREMDSKFSFGQATPRTLLGIIRLSQALAKLRLADMVDIDDVEEALRLVRVSKESLYQETNKSKEDESPTTKIFTIIKKMLQETGKNTLSYENIVKTVRLRGFTMLQLSNCIQEYSYLNVWHLINEGNTLKFVDDGTMDTDQEDSLVSTPKLAPQTTASANVSAQDSDIDLQDA
# notes: Mcm7, S. cerevisiae, recombinant subunit; source: E. coli, purified, reconstituted into Mcm2-7 as described [27]
# B4: Mcm4, subunit of Saccharomyces cerevisiae Mcm2-7 (natural protein, S. cerevisiae, UniProt P30665 1-933, looked up)
# chain: MSQQSSSPTKEDNNSSSPVVPNPDSVPPQLSSPALFYSSSSSQGDIYGRNNSQNLSQGEGNIRAAIGSSPLNFPSSSQRQNSDVFQSQGRQGRIRSSASASGRSRYHSDLRSDRALPTSSSSLGRNGQNRVHMRRNDIHTSDLSSPRRIVDFDTRSGVNTLDTSSSSAPPSEASEPLRIIWGTNVSIQECTTNFRNFLMSFKYKFRKILDEREEFINNTTDEELYYIKQLNEMRELGTSNLNLDARNLLAYKQTEDLYHQLLNYPQEVISIMDQTIKDCMVSLIVDNNLDYDLDEIETKFYKVRPYNVGSCKGMRELNPNDIDKLINLKGLVLRSTPVIPDMKVAFFKCNVCDHTMAVEIDRGVIQEPARCERIDCNEPNSMSLIHNRCSFADKQVIKLQETPDFVPDGQTPHSISLCVYDELVDSCRAGDRIEVTGTFRSIPIRANSRQRVLKSLYKTYVDVVHVKKVSDKRLDVDTSTIEQELMQNKVDHNEVEEVRQITDQDLAKIREVAAREDLYSLLARSIAPSIYELEDVKKGILLQLFGGTNKTFTKGGRYRGDINILLCGDPSTSKSQILQYVHKITPRGVYTSGKGSSAVGLTAYITRDVDTKQLVLESGALVLSDGGVCCIDEFDKMSDSTRSVLHEVMEQQTISIAKAGIITTLNARSSILASANPIGSRYNPNLPVTENIDLPPPLLSRFDLVYLVLDKVDEKNDRELAKHLTNLYLEDKPEHISQDDVLPVEFLTMYISYAKEHIHPIITEAAKTELVRAYVGMRKMGDDSRSDEKRITATTRQLESMIRLAEAHAKMKLKNVVELEDVQEAVRLIRSAIKDYATDPKTGKIDMNLVQTGKSVIQRKLQEDLSREIMNVLKDQASDSMSFNELIKQINEHSQDRVESSDIQEALSRLQQEDKVIVLGEGVRRSVRLNNRV
# notes: Mcm4, S. cerevisiae, recombinant subunit; source: E. coli, purified, reconstituted into Mcm2-7 as described [27]
# B5: Mcm3_(K499A), Mcm3 with the PS1 hairpin mutation (natural protein, S. cerevisiae, UniProt P24279 1-971, looked up)
# chain: B1 chain with K499A
# notes: Mcm3, S. cerevisiae, K499A; NdeI-SacI fragment of mcm3_(K499A)-YCplac111 in pET24a (pMD466); also called the Mcm3 subunit of Mcm2-7_(3K499A); source: E. coli BL21 DE3 Codon+, purified (ammonium sulfate, Q Sepharose, ssDNA-Sepharose, MonoQ, MonoS)
# Tests used:
# Assay in all cases: SEC; individual purified Mcm subunits mixed in equal molar ratios to reconstitute the hexameric complex; elution from a gel filtration column, fractions analysed by SDS-PAGE
# Conditions in all cases: both partners purified
# [1] = target: T1, Mcm6, subunit of Saccharomyces cerevisiae Mcm2-7 (S. cerevisiae, UniProt P53091 1-1017)
# T1 construct: Mcm6, S. cerevisiae, recombinant subunit; source: E. coli, purified, reconstituted into Mcm2-7 as described [27]
# [2] = target: B1
# [3] = target: B5
# T1 sequence (P53091 whole entry): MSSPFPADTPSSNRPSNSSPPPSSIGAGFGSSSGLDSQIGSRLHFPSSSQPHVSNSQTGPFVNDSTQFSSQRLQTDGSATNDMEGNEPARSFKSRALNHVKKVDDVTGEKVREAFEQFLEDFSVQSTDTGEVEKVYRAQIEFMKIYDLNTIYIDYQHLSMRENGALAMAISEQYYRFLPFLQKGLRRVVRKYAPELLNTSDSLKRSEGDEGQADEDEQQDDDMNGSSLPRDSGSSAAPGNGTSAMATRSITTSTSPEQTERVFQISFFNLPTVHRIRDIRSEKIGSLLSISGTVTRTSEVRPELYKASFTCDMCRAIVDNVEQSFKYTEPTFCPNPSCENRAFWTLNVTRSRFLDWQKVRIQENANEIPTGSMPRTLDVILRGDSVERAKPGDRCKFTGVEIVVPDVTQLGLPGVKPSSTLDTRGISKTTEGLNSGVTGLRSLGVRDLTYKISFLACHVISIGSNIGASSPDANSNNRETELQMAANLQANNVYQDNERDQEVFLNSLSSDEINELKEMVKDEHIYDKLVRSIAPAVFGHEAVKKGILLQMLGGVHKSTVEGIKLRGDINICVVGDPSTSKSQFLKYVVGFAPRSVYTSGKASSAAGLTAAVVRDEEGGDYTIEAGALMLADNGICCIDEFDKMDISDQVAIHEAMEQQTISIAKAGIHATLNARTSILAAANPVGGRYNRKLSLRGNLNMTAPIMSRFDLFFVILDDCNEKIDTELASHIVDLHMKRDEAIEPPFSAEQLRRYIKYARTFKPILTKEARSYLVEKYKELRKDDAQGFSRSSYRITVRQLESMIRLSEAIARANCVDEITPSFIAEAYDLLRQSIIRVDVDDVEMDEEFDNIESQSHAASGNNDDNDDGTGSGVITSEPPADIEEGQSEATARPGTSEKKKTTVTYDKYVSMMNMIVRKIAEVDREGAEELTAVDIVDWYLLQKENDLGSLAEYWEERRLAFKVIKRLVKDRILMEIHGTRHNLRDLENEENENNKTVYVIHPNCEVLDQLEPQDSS
Binder,binding result [1],binding result [2],binding result [3]
B1,binds,–,–
B2,–,binds,binds
B3,–,binds,binds
B4,–,binds,binds
B5,binds,–,–

# Reference: publication PMC3859580, “The PS1 Hairpin of Mcm3 Is Essential for Viability and for DNA Unwinding In Vitro” (PLoS ONE, 2013)
